Assay results reported in patent WO2011104307A2.

Target: host cell proteins
Assay: microtiter plate column chromatography, Bradford assay; fraction of injected protein bound

rProtein A Sepharose FF (from UniProt P38507 37-327)
Bound: 0%
